The assay addresses T1, Salmonella typhimurium tryptophan synthase TrpB subunit (Salmonella typhimurium, UniProt P0A2K1 1-397, pyridoxal 5'-phosphate (PLP) as internal aldimine; Lys87 named in the active site).
T1 construct: Tryptophan synthase beta chain (TrpB), Salmonella typhimurium; also called TS β-subunit
T1 sequence: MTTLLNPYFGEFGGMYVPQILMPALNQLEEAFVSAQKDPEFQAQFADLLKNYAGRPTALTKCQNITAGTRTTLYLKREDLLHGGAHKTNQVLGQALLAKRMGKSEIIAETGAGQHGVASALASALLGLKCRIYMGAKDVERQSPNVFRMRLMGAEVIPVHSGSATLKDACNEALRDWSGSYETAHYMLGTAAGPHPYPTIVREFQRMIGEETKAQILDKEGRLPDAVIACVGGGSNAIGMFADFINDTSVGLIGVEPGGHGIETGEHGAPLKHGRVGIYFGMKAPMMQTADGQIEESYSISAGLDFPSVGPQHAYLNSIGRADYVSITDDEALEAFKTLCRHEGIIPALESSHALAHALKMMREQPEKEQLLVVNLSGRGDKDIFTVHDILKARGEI
The experiment in a line: crystal structure; TrpAB complex purified together; crystals from 17% (w/v) PEG 300, 0.1 M Tris-HCl pH 7.5, 20 mM cesium chloride, 18 °C, hanging drop; space group C 2, one TrpA and one TrpB in the asymmetric unit; cryo-trapped 0, 20, 25 and 30 s after LAMA mixing with indole, serine and G3P. The note with it: both partners purified.

B1: Salmonella typhimurium tryptophan synthase TrpA subunit (enzyme)
chain: MERYENLFAQLNDRREGAFVPFVTLGDPGIEQSLKIIDTLIDAGADALELGVPFSDPLADGPTIQNANLRAFAAGVTPAQCFEMLALIREKHPTIPIGLLMYANLVFNNGIDAFYARCEQVGVDSVLVADVPVEESAPFRQAALRHNIAPIFICPPNADDDLLRQVASYGRGYTYLLSRSGVTGAENRGALPLHHLIEKLKEYHAAPALQGFGISSPEQVSAAVRAGAAGAISGSAIVKIIEKNLASPKQMLAELRSFVSAMKAASRA
notes: Tryptophan synthase alpha chain (TrpA), Salmonella typhimurium; also called TS alpha subunit
For B1, the binding result is on record as “binds”.

(Values after paper PMC10130016, “Millisecond cryo-trapping by the spitrobot crystal plunger simplifies time-resolved crystallography” (Nature Communications, 2023).)
